Common to all, as to assay type: functional, cell membranes, HEK293, Membrane vesicle
Substrate in data set [1]: C=CC1=C(C)/C(=C/c2[nH]c(Cc3[nH]c(/C=C4\NC(=O)C(C)=C4C=C)c(C)c3CCC(=O)O[C@@H]3OC(C(=O)O)[C@@H](O)C(O)C3O)c(CCC(=O)O)c2C)NC1=O
Nature of the data set: (§1) TP_TRANSPORTER: uptake in membrane vesicles from MRP2-expressing HEK cells.

Substrate in data set [2]: C=CC1=C(C)/C(=C/c2[nH]c(Cc3[nH]c(/C=C4\NC(=O)C(C)=C4C=C)c(C)c3CCC(=O)O[C@@H]3O[C@@H](C(=O)O)[C@H](O)[C@@H](O)[C@@H]3O)c(CCC(=O)O[C@@H]3O[C@H](C(=O)O)[C@H](O)[C@H](O)[C@@H]3O)c2C)NC1=O
The data set is described as §1.

Substrate in data set [3]: C=CC1=C(C)/C(=C/c2[nH]c(Cc3[nH]c(/C=C4\NC(=O)C(C)=C4C=C)c(C)c3CCC(=O)O[C@@H]3OC(C(=O)O)[C@@H](O)C(O)C3O)c(CCC(=O)O)c2C)NC1=O
Nature of the data set: (§2) TP_TRANSPORTER: uptake in membrane vesicles from Mrp2-expressing HEK cells.

Substrate in data set [4]: C=CC1=C(C)/C(=C/c2[nH]c(Cc3[nH]c(/C=C4\NC(=O)C(C)=C4C=C)c(C)c3CCC(=O)O[C@@H]3O[C@@H](C(=O)O)[C@H](O)[C@@H](O)[C@@H]3O)c(CCC(=O)O[C@@H]3O[C@H](C(=O)O)[C@H](O)[C@H](O)[C@@H]3O)c2C)NC1=O
The description is as §2.

In general, Km refers to the concentration of substrate that gives half-maximal velocity.

B1: ATP-binding cassette sub-family C member 2 (Homo sapiens) (protein)
chain: MLEKFCNSTFWNSSFLDSPEADLPLCFEQTVLVWIPLGYLWLLAPWQLLHVYKSRTKRSSTTKLYLAKQVFVGFLLILAAIELALVLTEDSGQATVPAVRYTNPSLYLGTWLLVLLIQYSRQWCVQKNSWFLSLFWILSILCGTFQFQTLIRTLLQGDNSNLAYSCLFFISYGFQILILIFSAFSENNESSNNPSSIASFLSSITYSWYDSIILKGYKRPLTLEDVWEVDEEMKTKTLVSKFETHMKRELQKARRALQRRQEKSSQQNSGARLPGLNKNQSQSQDALVLEDVEKKKKKSGTKKDVPKSWLMKALFKTFYMVLLKSFLLKLVNDIFTFVSPQLLKLLISFASDRDTYLWIGYLCAILLFTAALIQSFCLQCYFQLCFKLGVKVRTAIMASVYKKALTLSNLARKEYTVGETVNLMSVDAQKLMDVTNFMHMLWSSVLQIVLSIFFLWRELGPSVLAGVGVMVLVIPINAILSTKSKTIQVKNMKNKDKRLKIMNEILSGIKILKYFAWEPSFRDQVQNLRKKELKNLLAFSQLQCVVIFVFQLTPVLVSVVTFSVYVLVDSNNILDAQKAFTSITLFNILRFPLSMLPMMISSMLQASVSTERLEKYLGGDDLDTSAIRHDCNFDKAMQFSEASFTWEHDSEATVRDVNLDIMAGQLVAVIGPVGSGKSSLISAMLGEMENVHGHITIKGTTAYVPQQSWIQNGTIKDNILFGTEFNEKRYQQVLEACALLPDLEMLPGGDLAEIGEKGINLSGGQKQRISLARATYQNLDIYLLDDPLSAVDAHVGKHIFNKVLGPNGLLKGKTRLLVTHSMHFLPQVDEIVVLGNGTIVEKGSYSALLAKKGEFAKNLKTFLRHTGPEEEATVHDGSEEEDDDYGLISSVEEIPEDAASITMRRENSFRRTLSRSSRSNGRHLKSLRNSLKTRNVNSLKEDEELVKGQKLIKKEFIETGKVKFSIYLEYLQAIGLFSIFFIILAFVMNSVAFIGSNLWLSAWTSDSKIFNSTDYPASQRDMRVGVYGALGLAQGIFVFIAHFWSAFGFVHASNILHKQLLNNILRAPMRFFDTTPTGRIVNRFAGDISTVDDTLPQSLRSWITCFLGIISTLVMICMATPVFTIIVIPLGIIYVSVQMFYVSTSRQLRRLDSVTRSPIYSHFSETVSGLPVIRAFEHQQRFLKHNEVRIDTNQKCVFSWITSNRWLAIRLELVGNLTVFFSALMMVIYRDTLSGDTVGFVLSNALNITQTLNWLVRMTSEIETNIVAVERITEYTKVENEAPWVTDKRPPPDWPSKGKIQFNNYQVRYRPELDLVLRGITCDIGSMEKIGVVGRTGAGKSSLTNCLFRILEAAGGQIIIDGVDIASIGLHDLREKLTIIPQDPILFSGSLRMNLDPFNNYSDEEIWKALELAHLKSFVASLQLGLSHEVTEAGGNLSIGQRQLLCLGRALLRKSKILVLDEATAAVDLETDNLIQTTIQNEFAHCTVITIAHRLHTIMDSDKVMVLDNGKIIECGSPEELLQIPGPFYFMAKEAGIENVNSTKF
Regarding B1, the Km in data set [1] was 0.7 µM; in data set [2] it was 0.9 µM.

B2: ATP-binding cassette sub-family C member 2 (Rattus norvegicus) (protein)
chain: MDKFCNSTFWDLSLLESPEADLPLCFEQTVLVWIPLGFLWLLAPWQLYSVYRSRTKRSSITKFYLAKQVFVVFLLILAAIDLSLALTEDTGQATVPPVRYTNPILYLCTWLLVLAVQHSRQWCVRKNSWFLSLFWILSVLCGVFQFQTLIRALLKDSKSNMAYSYLFFVSYGFQIVLLILTAFSGPSDSTQTPSVTASFLSSITFSWYDRTVLKGYKHPLTLEDVWDIDEGFKTRSVTSKFEAAMTKDLQKARQAFQRRLQKSQRKPEATLHGLNKKQSQSQDVLVLEEAKKKSEKTTKDYPKSWLIKSLFKTFHVVILKSFILKLIHDLLVFLNPQLLKLLIGFVKSSNSYVWFGYICAILMFAVTLIQSFCLQSYFQHCFVLGMCVRTTVMSSIYKKALTLSNLARKQYTIGETVNLMSVDSQKLMDATNYMQLVWSSVIQITLSIFFLWRELGPSILAGVGVMVLLIPVNGVLATKIRNIQVQNMKNKDKRLKIMNEILSGIKILKYFAWEPSFQEQVQGIRKKELKNLLRFGQLQSLLIFILQITPILVSVVTFSVYVLVDSANVLNAEKAFTSITLFNILRFPLSMLPMVTSSILQASVSVDRLERYLGGDDLDTSAIRRVSNFDKAVKFSEASFTWDPDLEATIQDVNLDIKPGQLVAVVGTVGSGKSSLVSAMLGEMENVHGHITIQGSTAYVPQQSWIQNGTIKDNILFGSEYNEKKYQQVLKACALLPDLEILPGGDMAEIGEKGINLSGGQKQRVSLARAAYQDADIYILDDPLSAVDAHVGKHIFNKVVGPNGLLAGKTRIFVTHGIHFLPQVDEIVVLGKGTILEKGSYRDLLDKKGVFARNWKTFMKHSGPEGEATVNNDSEAEDDDDGLIPTMEEIPEDAASLAMRRENSLRRTLSRSSRSSSRRGKSLKNSLKIKNVNVLKEKEKEVEGQKLIKKEFVETGKVKFSIYLKYLQAVGWWSILFIILFYGLNNVAFIGSNLWLSAWTSDSDNLNGTNNSSSHRDMRIGVFGALGLAQGICLLISTLWSIYACRNASKALHGQLLTNILRAPMRFFDTTPTGRIVNRFSGDISTVDDLLPQTLRSWMMCFFGIAGTLVMICMATPVFAIIIIPLSILYISVQVFYVATSRQLRRLDSVTKSPIYSHFSETVTGLPIIRAFEHQQRFLAWNEKQIDINQKCVFSWITSNRWLAIRLELVGNLVVFCSALLLVIYRKTLTGDVVGFVLSNALNITQTLNWLVRMTSEAETNIVAVERISEYINVENEAPWVTDKRPPADWPRHGEIQFNNYQVRYRPELDLVLKGITCNIKSGEKVGVVGRTGAGKSSLTNCLFRILESAGGQIIIDGIDVASIGLHDLRERLTIIPQDPILFSGSLRMNLDPFNKYSDEEVWRALELAHLRSFVSGLQLGLLSEVTEGGDNLSIGQRQLLCLGRAVLRKSKILVLDEATAAVDLETDSLIQTTIRKEFSQCTVITIAHRLHTIMDSDKIMVLDNGKIVEYGSPEELLSNRGSFYLMAKEAGIENVNHTEL
B2: the Michaelis constant (Km) in data set [3] was determined as 0.8 µM; in data set [4], 0.5 µM.
